Results as given in publication PMC11338831.
Several values for one entry are separate records, joined by “and”; a condition that tells them apart may be missing. Equal values may be shown once.

How the values were obtained:
[1] = biological target: SlNRC2-Twin-Strep-HA (Solanum lycopersicum (tomato)); test: native gel or EMSA; Blue Native-PAGE (3-12% Bis-Tris) of SlNRC2-Twin-Strep-HA variants eluted from Strep-Tactin XT resin out of nrc2/3/4 N. benthamiana leaf extract; immunoblot
[2] = biological target: Solanum lycopersicum (tomato) NRC2, full-length, purified from insect cells (Solanum lycopersicum (tomato)); test: cryo-EM structure; apparently dimeric SlNRC2 specimen, 0.7 mg ml^-1; dimer at 2.84 Å and tetramer at 3.17 Å from one data set, C2 symmetry
[3] = biological target: Solanum lycopersicum (tomato) NRC2, full-length, purified from insect cells (Solanum lycopersicum (tomato)); test: SEC; gel filtration of purified SlNRC2 after removal of MBP; Buffer E (10 mM Tris-HCl pH 8.0, 150 mM NaCl, 1 mM dithiothreitol); Superdex 200 Increase 10/300 GL

## SlNRC2-Twin-Strep-HA (natural protein)
[1]
  stoichiometry N: 2 and 4

## Solanum lycopersicum (tomato) NRC2, full-length, purified from insect cells (natural protein)
[2]
  stoichiometry N: 2 and 4
[3]
  stoichiometry N: 2
